B1: mRNA-splicing (parent)
chain: AGUUGCUGCUGGGAGCUCCAGCACAGUGAAAUGGACAGAAGGGCAGAGCAA

Variants of: B1
Test: exon inclusion enrichment index; higher = more inclusion; WT1 exon 5 minigene, HEK293

| Variant | exon inclusion enrichment index |
| --- | --- |
| G5C C6U G8C C9U U10C G15U C16G | 1.44 |
| G5C C6U G8C C9U U10C G15U C16U | 1.32 |
| G5C C6U G8C C9U U10C G21A | 1.28 |
| G5C C6U G8C C9U U10C G21A C22A | 0.718 |
| G5C C6U G8C C9U U10C G21A C22G | 1.93 |
| G5C C6U G8C C9U U10C G21A C22U | 0.846 |
| G5C C6U G8C C9U U10C G21C | 1.57 |
| G5C C6U G8C C9U U10C G21C C22A | 1.71 |
| G5C C6U G8C C9U U10C G21C C22G | 3.01 |
| G5C C6U G8C C9U U10C G21C C22U | 1.79 |
| G5C C6U G8C C9U U10C G21U | 1.22 |
| G5C C6U G8C C9U U10C G21U C22A | 0.661 |
| G5C C6U G8C C9U U10C G21U C22G | 1.74 |
| G5C C6U G8C C9U U10C G21U C22U | 0.512 |
| G5C C6U G8C C9U U10C G26A | 2.49 |
| G5C C6U G8C C9U U10C G26A U27A | 1.96 |
| G5C C6U G8C C9U U10C G26A U27C | 3.55 |
| G5C C6U G8C C9U U10C G26A U27G | 2.81 |
| G5C C6U G8C C9U U10C G26C | 2.29 |
| G5C C6U G8C C9U U10C G26C U27A | 2.14 |
| G5C C6U G8C C9U U10C G26C U27C | 3.12 |
| G5C C6U G8C C9U U10C G26C U27G | 3.22 |
| G5C C6U G8C C9U U10C G26U | 2.06 |
| G5C C6U G8C C9U U10C G26U U27A | 0.886 |

| Variant | exon inclusion enrichment index |
| --- | --- |
| G5C C6U G8C C9U U10C G26U U27C | 3.41 |
| G5C C6U G8C C9U U10C G26U U27G | 2.97 |
| G5C C6U G8C C9U U10C G28A | 0.598 |
| G5C C6U G8C C9U U10C G28A A29C | 1.12 |
| G5C C6U G8C C9U U10C G28A A29G | 0.736 |
| G5C C6U G8C C9U U10C G28A A29U | 0.475 |
| G5C C6U G8C C9U U10C G28C | 1.55 |
| G5C C6U G8C C9U U10C G28C A29C | 1.58 |
| G5C C6U G8C C9U U10C G28C A29G | 2.82 |
| G5C C6U G8C C9U U10C G28C A29U | 1.13 |
| G5C C6U G8C C9U U10C G28U | 0.486 |
| G5C C6U G8C C9U U10C G28U A29C | 1.48 |
| G5C C6U G8C C9U U10C G28U A29G | 1.84 |
| G5C C6U G8C C9U U10C G28U A29U | 0.419 |
| G5C C6U G8C C9U U10C G33A | 0.198 |
| G5C C6U G8C C9U U10C G33A G34A | 0.246 |
| G5C C6U G8C C9U U10C G33A G34C | 0.284 |
| G5C C6U G8C C9U U10C G33A G34U | 0.283 |
| G5C C6U G8C C9U U10C G33C | 2.15 |
| G5C C6U G8C C9U U10C G33C G34A | 1.24 |
| G5C C6U G8C C9U U10C G33C G34C | 1.12 |
| G5C C6U G8C C9U U10C G33C G34U | 1.29 |
| G5C C6U G8C C9U U10C G33U | 0.658 |
| G5C C6U G8C C9U U10C G33U G34A | 0.262 |

| Variant | exon inclusion enrichment index |
| --- | --- |
| G5C C6U G8C C9U U10C G33U G34C | 0.547 |
| G5C C6U G8C C9U U10C G33U G34U | 0.282 |
| G5C C6U G8C C9U U10C G34A | 1.17 |
| G5C C6U G8C C9U U10C G34A A35C | 1.47 |
| G5C C6U G8C C9U U10C G34A A35G | 0.76 |
| G5C C6U G8C C9U U10C G34A A35U | 0.568 |
| G5C C6U G8C C9U U10C G34C | 0.84 |
| G5C C6U G8C C9U U10C G34C A35C | 0.141 |
| G5C C6U G8C C9U U10C G34C A35G | 1.38 |
| G5C C6U G8C C9U U10C G34C A35U | 0.385 |
| G5C C6U G8C C9U U10C G34U | 0.391 |
| G5C C6U G8C C9U U10C G34U A35C | 0.683 |
| G5C C6U G8C C9U U10C G34U A35G | 0.537 |
| G5C C6U G8C C9U U10C G34U A35U | 0.377 |
| G5C C6U G8C C9U U10C G38A | 1.01 |
| G5C C6U G8C C9U U10C G38A A39C | 1.48 |
| G5C C6U G8C C9U U10C G38A A39G | 1.85 |
| G5C C6U G8C C9U U10C G38A A39U | 0.134 |
| G5C C6U G8C C9U U10C G38C | 1.28 |
| G5C C6U G8C C9U U10C G38C A39C | 1.84 |
| G5C C6U G8C C9U U10C G38C A39G | 1.77 |
| G5C C6U G8C C9U U10C G38C A39U | 0.141 |
| G5C C6U G8C C9U U10C G38U | 0.577 |
| G5C C6U G8C C9U U10C G38U A39C | 1.39 |

| Variant | exon inclusion enrichment index |
| --- | --- |
| G5C C6U G8C C9U U10C G38U A39G | 0.734 |
| G5C C6U G8C C9U U10C G38U A39U | 0.0819 |
| G5C C6U G8C C9U U10C G41A | 1.33 |
| G5C C6U G8C C9U U10C G41A G42A | 1.54 |
| G5C C6U G8C C9U U10C G41A G42C | 2.67 |
| G5C C6U G8C C9U U10C G41A G42U | 1.71 |
| G5C C6U G8C C9U U10C G41C | 3.06 |
| G5C C6U G8C C9U U10C G41C G42A | 2 |
| G5C C6U G8C C9U U10C G41C G42C | 2.99 |
| G5C C6U G8C C9U U10C G41C G42U | 2.93 |
| G5C C6U G8C C9U U10C G41U | 2.03 |
| G5C C6U G8C C9U U10C G41U G42A | 0.727 |
| G5C C6U G8C C9U U10C G41U G42C | 2.93 |
| G5C C6U G8C C9U U10C G41U G42U | 1.74 |
| G5C C6U G8C C9U U10C G42A | 3.34 |
| G5C C6U G8C C9U U10C G42A G43A | 4.1 |
| G5C C6U G8C C9U U10C G42A G43C | 4.2 |
| G5C C6U G8C C9U U10C G42A G43U | 3.86 |
| G5C C6U G8C C9U U10C G42C | 3.76 |
| G5C C6U G8C C9U U10C G42C G43A | 2.79 |
| G5C C6U G8C C9U U10C G42C G43C | 2.72 |
| G5C C6U G8C C9U U10C G42C G43U | 2.87 |
| G5C C6U G8C C9U U10C G42U | 2.42 |
| G5C C6U G8C C9U U10C G42U G43A | 3.34 |

| Variant | exon inclusion enrichment index |
| --- | --- |
| G5C C6U G8C C9U U10C G42U G43C | 1.23 |
| G5C C6U G8C C9U U10C G42U G43U | 2.81 |
| G5C C6U G8C C9U U10C G43A | 3.52 |
| G5C C6U G8C C9U U10C G43A C44A | 3.42 |
| G5C C6U G8C C9U U10C G43A C44G | 3.59 |
| G5C C6U G8C C9U U10C G43A C44U | 2 |
| G5C C6U G8C C9U U10C G43C | 1.75 |
| G5C C6U G8C C9U U10C G43C C44A | 3.17 |
| G5C C6U G8C C9U U10C G43C C44G | 4.6 |
| G5C C6U G8C C9U U10C G43C C44U | 1.6 |
| G5C C6U G8C C9U U10C G43U | 1.51 |
| G5C C6U G8C C9U U10C G43U C44A | 0.0354 |
| G5C C6U G8C C9U U10C G43U C44G | 0.398 |
| G5C C6U G8C C9U U10C G43U C44U | 0.567 |
| G5C C6U G8C C9U U10C G46A | 2.05 |
| G5C C6U G8C C9U U10C G46A A47C | 2.56 |
| G5C C6U G8C C9U U10C G46A A47G | 0.717 |
| G5C C6U G8C C9U U10C G46A A47U | 2.29 |
| G5C C6U G8C C9U U10C G46C | 1.62 |
| G5C C6U G8C C9U U10C G46C A47C | 1.76 |
| G5C C6U G8C C9U U10C G46C A47G | 2.72 |
| G5C C6U G8C C9U U10C G46C A47U | 1.64 |
| G5C C6U G8C C9U U10C G46U | 1.35 |
| G5C C6U G8C C9U U10C G46U A47C | 2.75 |

| Variant | exon inclusion enrichment index |
| --- | --- |
| G5C C6U G8C C9U U10C G46U A47G | 1.76 |
| G5C C6U G8C C9U U10C G46U A47U | 2.05 |
| G5C C6U G8C C9U U10C G48A | 2.76 |
| G5C C6U G8C C9U U10C G48C | 2.43 |
| G5C C6U G8C C9U U10C G48U | 2.26 |
| G5C C6U G8C C9U U10C U17A | 1.95 |
| G5C C6U G8C C9U U10C U17A C18A | 1.32 |
| G5C C6U G8C C9U U10C U17A C18G | 1.83 |
| G5C C6U G8C C9U U10C U17A C18U | 1.58 |
| G5C C6U G8C C9U U10C U17C | 1.43 |
| G5C C6U G8C C9U U10C U17C C18A | 1.45 |
| G5C C6U G8C C9U U10C U17C C18G | 2.39 |
| G5C C6U G8C C9U U10C U17C C18U | 1.9 |
| G5C C6U G8C C9U U10C U17G | 1.65 |
| G5C C6U G8C C9U U10C U17G C18A | 2 |
| G5C C6U G8C C9U U10C U17G C18G | 1.96 |
| G5C C6U G8C C9U U10C U17G C18U | 1.64 |
| G5C C6U G8C C9U U10C U27A | 2.29 |
| G5C C6U G8C C9U U10C U27A G28A | 2.06 |
| G5C C6U G8C C9U U10C U27A G28C | 2.07 |
| G5C C6U G8C C9U U10C U27A G28U | 0.824 |
| G5C C6U G8C C9U U10C U27C | 3.63 |
| G5C C6U G8C C9U U10C U27C G28A | 1.89 |
| G5C C6U G8C C9U U10C U27C G28C | 2.52 |

| Variant | exon inclusion enrichment index |
| --- | --- |
| G5C C6U G8C C9U U10C U27C G28U | 1.2 |
| G5C C6U G8C C9U U10C U27G | 0.69 |
| G5C C6U G8C C9U U10C U27G G28A | 2.11 |
| G5C C6U G8C C9U U10C U27G G28C | 1.04 |
| G5C C6U G8C C9U U10C U27G G28U | 0.00454 |
| G5C C6U G8C C9U U10C U32A | 1.46 |
| G5C C6U G8C C9U U10C U32A G33A | 0.758 |
| G5C C6U G8C C9U U10C U32A G33C | 2.37 |
| G5C C6U G8C C9U U10C U32A G33U | 1.25 |
| G5C C6U G8C C9U U10C U32C | 3.26 |
| G5C C6U G8C C9U U10C U32C G33A | 0.84 |
| G5C C6U G8C C9U U10C U32C G33C | 2.66 |
| G5C C6U G8C C9U U10C U32C G33U | 1.28 |
| G5C C6U G8C C9U U10C U32G | 0.212 |
| G5C C6U G8C C9U U10C U32G G33A | 0.468 |
| G5C C6U G8C C9U U10C U32G G33C | 1.97 |
| G5C C6U G8C C9U U10C U32G G33U | 0.774 |
| G5C C6U G8C C9U U10G | 1.12 |
| G5C C6U G8C C9U U10G G11A | 2 |
| G5C C6U G8C C9U U10G G11C | 2.13 |
| G5C C6U G8C C9U U10G G11U | 1.56 |
| G5C C6U G8C U10A | 0.518 |
| G5C C6U G8C U10C | 2.2 |

Source: the RNAGym collection of RNA variant scans (doi:10.1101/gr.219683.116)
